Tests used:
iC3b = molecular target: T1, iC3b (UniProt P01024 23-667; P01024 749-1303; P01024 1321-1663); assay: SPR (Biacore 2000), analyte over iC3b surface on CM5 chip
T1 construct: Made on the chip from deposited C3b with FI and the cofactor FH
Procedure: (§1) C3-fragment binding. Equal amounts of C3b (˜4000 RUs) (from Complement Technology, Tyler, Tex., USA) were immobilized onto 3 flow-cells (fc) of a CM5 chip (Biacore) by initial amine-coupling of a small amount of C3b onto fc 2-4 and further deposition of the vast majority of C3b molecules via its reactive thioester through an on-chip assembly of the AP-convertase (C3bBb) and subsequent exposure to and proteolytic activation of C3 (24). The surface was washed overnight with a buffer flow of 10 ul/min to allow stabilization of the physiologically prepared C3b-surface. […] C3b molecules on fc3 and fc4 were processed with FI in the presence of the cofactors FH or soluble complement receptor 1 (sCR1) to yield iC3b or C3dg (the latter as described in Morgan et al., 2011, supra), respectively. A dummy surface (fc1) was prepared by two consecutive cycles of surface activation with standard amine coupling reagents and quenching by ethanolamine.
(§2) Due to the physiological deposition of C3b and subsequent trimming with FI, both, the iC3b and the C3dg, surfaces likely carry miniscule amounts of residual C3b molecules, which were not readily accessible by FI. […] Deposition, proteolytic processing and all interactions studies were performed in HBS-P+buffer (i.e. 10 mM HEPES-buffered 150 mM saline (pH7.4), 0.005% (v/v) surfactant p20, 1 mM MgCl₂) at 25° C.

C3b = molecular target: T2, C3b (UniProt P01024 749-1663; P01024 23-667); assay: SPR (Biacore 2000), analyte over C3b deposited on CM5 chip
T2 construct: Immobilised on a CM5 chip; A small amount was amine-coupled and the majority deposited via the reactive thioester by on-chip AP convertase; also called complement fragment C3b; deposited C3b
Procedure: as §1, §2

C3dg = molecular target: T3, C3dg (UniProt P01024 955-1303); assay: SPR (Biacore 2000), analyte over C3dg surface on CM5 chip
T3 construct: Made on the chip from deposited C3b with FI and the cofactor sCR1
Procedure: as §1, §2

T3 sequence (P01024 955-1303 limits assumed): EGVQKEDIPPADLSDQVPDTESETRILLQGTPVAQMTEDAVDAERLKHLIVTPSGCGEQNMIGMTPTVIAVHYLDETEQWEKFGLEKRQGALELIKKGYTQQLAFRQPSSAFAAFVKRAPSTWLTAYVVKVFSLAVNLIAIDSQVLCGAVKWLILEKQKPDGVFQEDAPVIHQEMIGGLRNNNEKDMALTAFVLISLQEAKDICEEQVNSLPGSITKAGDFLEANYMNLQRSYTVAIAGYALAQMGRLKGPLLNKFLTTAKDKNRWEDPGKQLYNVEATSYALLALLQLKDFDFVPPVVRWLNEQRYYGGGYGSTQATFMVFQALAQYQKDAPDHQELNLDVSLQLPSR
T2 sequence (P01024 749-1663 limits assumed, chain 1 of 2): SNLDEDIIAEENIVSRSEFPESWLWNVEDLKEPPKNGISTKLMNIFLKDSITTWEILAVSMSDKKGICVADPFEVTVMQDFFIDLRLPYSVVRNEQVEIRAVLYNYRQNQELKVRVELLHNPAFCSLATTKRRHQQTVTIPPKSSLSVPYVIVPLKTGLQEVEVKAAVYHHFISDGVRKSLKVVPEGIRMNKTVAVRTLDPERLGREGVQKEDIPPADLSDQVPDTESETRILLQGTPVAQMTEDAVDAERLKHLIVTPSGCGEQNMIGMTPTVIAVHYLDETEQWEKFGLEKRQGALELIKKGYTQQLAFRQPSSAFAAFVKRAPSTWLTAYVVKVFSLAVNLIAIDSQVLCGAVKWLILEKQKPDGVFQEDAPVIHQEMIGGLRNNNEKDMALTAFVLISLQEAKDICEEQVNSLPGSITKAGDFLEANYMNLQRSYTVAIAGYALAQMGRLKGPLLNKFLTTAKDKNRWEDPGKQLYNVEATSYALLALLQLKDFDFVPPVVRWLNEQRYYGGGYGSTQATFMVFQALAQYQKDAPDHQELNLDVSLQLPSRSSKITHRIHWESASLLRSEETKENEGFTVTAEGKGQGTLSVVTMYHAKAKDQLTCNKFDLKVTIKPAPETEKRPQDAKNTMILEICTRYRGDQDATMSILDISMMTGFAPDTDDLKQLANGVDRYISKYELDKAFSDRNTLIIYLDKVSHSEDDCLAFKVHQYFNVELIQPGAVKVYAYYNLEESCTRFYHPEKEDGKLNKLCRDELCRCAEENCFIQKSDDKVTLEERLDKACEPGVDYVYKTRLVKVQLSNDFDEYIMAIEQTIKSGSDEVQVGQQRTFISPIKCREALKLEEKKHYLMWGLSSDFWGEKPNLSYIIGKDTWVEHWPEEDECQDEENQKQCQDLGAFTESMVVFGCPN
T2 sequence (P01024 23-667 limits assumed, chain 2 of 2): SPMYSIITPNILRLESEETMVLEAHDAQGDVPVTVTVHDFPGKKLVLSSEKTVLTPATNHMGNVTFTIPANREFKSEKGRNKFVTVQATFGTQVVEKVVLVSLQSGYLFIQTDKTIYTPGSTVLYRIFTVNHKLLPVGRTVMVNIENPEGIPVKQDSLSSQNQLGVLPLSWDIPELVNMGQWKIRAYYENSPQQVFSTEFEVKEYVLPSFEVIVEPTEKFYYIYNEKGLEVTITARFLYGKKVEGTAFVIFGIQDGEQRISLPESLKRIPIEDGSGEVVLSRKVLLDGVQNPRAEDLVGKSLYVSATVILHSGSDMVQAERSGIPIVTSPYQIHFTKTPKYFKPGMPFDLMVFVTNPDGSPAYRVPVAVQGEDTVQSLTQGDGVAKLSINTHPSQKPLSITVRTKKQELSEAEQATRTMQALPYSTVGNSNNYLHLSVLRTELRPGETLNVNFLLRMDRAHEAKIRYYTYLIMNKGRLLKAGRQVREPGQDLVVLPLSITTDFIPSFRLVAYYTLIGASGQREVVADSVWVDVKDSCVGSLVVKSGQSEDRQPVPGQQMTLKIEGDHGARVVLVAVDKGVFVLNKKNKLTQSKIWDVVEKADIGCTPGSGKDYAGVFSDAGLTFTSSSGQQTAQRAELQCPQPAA
T1 sequence (P01024 23-667, chain 1 of 3): as the sequence (P01024 23-667 limits assumed, chain 2 of 2) above
T1 sequence (P01024 749-1303, chain 2 of 3): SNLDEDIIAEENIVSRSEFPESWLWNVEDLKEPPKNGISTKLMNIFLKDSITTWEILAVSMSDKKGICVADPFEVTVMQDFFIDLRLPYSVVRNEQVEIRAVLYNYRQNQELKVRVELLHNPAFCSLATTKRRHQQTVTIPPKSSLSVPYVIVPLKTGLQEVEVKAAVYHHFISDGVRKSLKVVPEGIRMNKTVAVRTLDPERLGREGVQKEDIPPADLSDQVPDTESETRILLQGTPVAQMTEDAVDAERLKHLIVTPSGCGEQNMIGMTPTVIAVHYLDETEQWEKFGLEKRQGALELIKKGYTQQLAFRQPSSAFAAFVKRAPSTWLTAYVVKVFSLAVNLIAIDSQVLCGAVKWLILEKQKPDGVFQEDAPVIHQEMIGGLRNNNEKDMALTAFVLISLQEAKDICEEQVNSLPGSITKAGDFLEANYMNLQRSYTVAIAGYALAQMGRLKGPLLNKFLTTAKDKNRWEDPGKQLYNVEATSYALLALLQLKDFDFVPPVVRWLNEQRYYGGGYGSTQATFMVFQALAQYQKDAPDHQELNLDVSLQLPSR
T1 sequence (P01024 1321-1663, chain 3 of 3): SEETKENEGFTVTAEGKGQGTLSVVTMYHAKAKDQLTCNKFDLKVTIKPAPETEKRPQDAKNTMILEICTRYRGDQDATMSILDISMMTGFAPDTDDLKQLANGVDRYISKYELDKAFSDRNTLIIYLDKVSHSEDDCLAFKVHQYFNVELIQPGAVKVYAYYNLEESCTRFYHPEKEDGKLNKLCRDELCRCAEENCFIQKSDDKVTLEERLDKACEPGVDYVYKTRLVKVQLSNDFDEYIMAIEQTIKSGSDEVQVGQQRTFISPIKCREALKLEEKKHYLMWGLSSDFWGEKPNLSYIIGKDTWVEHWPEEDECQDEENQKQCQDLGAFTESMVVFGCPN

- binding result (iC3b): no binding
- binding result (C3b): no binding
- binding result (C3dg): no binding
B1: FH15-18 (other, UniProt P08603 868-1104, looked up)
chain: IPCSQPPQIEHGTINSSRSSQESYAHGTKLSYTCEGGFRISEENETTCYMGKWSSPPQCEGLPCKSPPEISHGVVAHMSDSYQYGEEVTYKCFEGFGIDGPAIAKCLGEKWSHPPSCIKTDCLSLPSFENAIPMGEKKDVYKAGEQVTYTCATYYKMDGASNVTCINSRWTGRPTCRDTSCVNPPTVQNAYIVSRQMSKYPSGERVRYQCRSPYEMFGDEEVMCLNGNWTEPPQCKD
notes: domain: CCPs 15-18; Negative control analyte in SPR

— patent US20150110766A1 (UNIVERSITY ULM, published 2015)
